{"source": "paper PMC10770331", "about": "“The virulence regulator VirB from Shigella flexneri uses a CTP-dependent switch mechanism to activate gene expression” (Nature Communications, 2024)", "molecules": {"B1": {"name": "open virS oligonucleotide (23 bp) (dsDNA)", "DNA 1": "GCTCGTTTCATCATGAAATCCCA", "DNA 2": "TGGGATTTCATGATGAAACGAGC"}, "B2": {"name": "VirB from Shigella flexneri (wild type) (natural protein)", "chain": "MVDLCNDLLSIKEGQKKEFTLHSGNKVSFIKAKIPHKRIQDLTFVNQKTNVRDQESLTEESLADIIKTIKLQQFFPVIGREIDGRIEILDGTRRRASAIYAGADLEVLYSKEYISTLDARKLANDIQTAKEHSIRELGIGLNFLKVSGMSYKDIAKKENLSRAKVTRAFQAASVPQEIISLFPIASELNFNDYKILFNYYKGLEKANESLSSTLPILKEEIKDLDTNLPPDIYKKEILNIIKKSKNRKQNPSLKVDSLFISKDKRTYIKRKENKTNRTLIFTLSKINKTVQREIDEAIRDIISRHLSSS", "notes": "VirB of S. flexneri, UniProt P0A247; Native C5 was used for BMOE cross-linking; also called WT; wild-type VirB; source: E. coli Rosetta(DE3)pLysS, purified (IMAC, Ulp1 cleavage of the His6-SUMO tag, second IMAC, SEC); not shown: His6, N-terminal, cleaved; SUMO, N-terminal, cleaved"}, "B3": {"name": "VirB-C5S/Q15C (natural protein)", "chain": "B2 chain with C5S, Q15C", "notes": "VirB of S. flexneri, UniProt P0A247, lacking the native cysteine at position 5 and carrying an engineered cysteine at position 15; source: E. coli Rosetta(DE3)pLysS, purified (IMAC, Ulp1 cleavage of the His6-SUMO tag, second IMAC, SEC); not shown: His6, N-terminal, cleaved; SUMO, N-terminal, cleaved"}}, "key": {"VirB [1]": {"molecular_target": "T1, VirB (Shigella flexneri, UniProt P0A247)", "T1 construct": "purified recombinant wild-type VirB, His6-SUMO tag removed; encoded on virulence plasmid pINV", "test": "microscale thermophoresis; supported by HDX-MS, crosslinking and weak CTPase activity", "format": "binding"}, "VirB (Shigella flexneri)": {"molecular_target": "T2, VirB (Shigella flexneri) (UniProt P0A247)", "T2 sequence": "B2 chain", "test": "BLI", "conditions": "BLI: 25 mM HEPES/NaOH pH 7.5, 150 mM (low stringency) or 500 mM (high stringency) NaCl, 5 mM MgCl2, 1 mM DTT, 10 uM BSA, 0.01% Tween 20, +/-1 mM nucleotide …"}, "VirB [2]": {"molecular_target": "T1, VirB", "test": "isothermal titration calorimetry", "format": "binding"}, "VirB [3]": {"molecular_target": "T1, VirB", "test": "isothermal titration calorimetry (MST KD […])", "format": "binding"}, "VirB [4]": {"molecular_target": "T3, VirB (Shigella flexneri, UniProt P0A247 1-309)", "T3 sequence": "B2 chain", "test": "BLI; 150 mM NaCl, without and with CTP; BLI: 25 mM HEPES/NaOH pH 7.5, 150 mM (low stringency) or 500 mM (high stringency) NaCl, 5 mM MgCl2, 1 mM DTT, 10 uM BSA, 0.01% Tween 20, +/-1 mM nucleotide; temperature not stated", "conditions": "protein: recombinant; tags: none (His6-SUMO removed by Ulp1); chain copies: 2; label: 5' biotin-TEG on strand 1; blunt; one end open"}, "[5]": {"molecular_target": "the molecule itself", "test": "mass photometry; ~100 nM protein in high-stringency buffer (25 mM HEPES/NaOH pH 7.5, 5 mM MgCl2, 500 mM NaCl, 1 mM DTT), without or with 1 mM CTP; oligomeric state in solution"}, "[6]": {"molecular_target": "the molecule itself", "test": "cross-linking; 10 µM protein, room temperature, 25 mM HEPES/NaOH pH 7.5, 500 mM NaCl, 5 mM MgCl2, 0.1 mM EDTA; alone, with 1 mM CTP and/or 1 µM virS DNA oligonucleotide; 1 mM BMOE for 1 min, SDS-PAGE; homodimerization of the two N-terminal NBDs within the VirB dimer (clamp closure)"}}, "note": "Where a chain is given by its changes, count along the chain named. Names may count otherwise.", "data": [{"molecule": "Nc1ccn([C@@H]2O[C@H](COP(=O)(O)OP(=O)(O)OP(=O)(O)O)[C@@H](O)[C@H]2O)c(=O)n1", "note": "[CTP]", "values": [{"measurement": "Kd", "setting": "VirB [1]", "result": 11, "unit": "µM"}]}, {"molecule": "AATATATTCAATTAATAAATTTAGAAACTTGAGCCTGTTAACATAATCAAATTTTCTTTTGCTGTACATAATATGTACCTCGTGAGCATATGTAGTGCTCGTTTCATCATGAAATCCCACAAGATAAAGTGCCTGATGTATCAGGCTCGGAGTGTTATAGAAAAAGAGAGAACCCTGTTGAATAAGTATCTTTTTTGTTGTAAAACGAGGTACAA (double strand) [closed virS DNA (215 bp)]", "values": [{"measurement": "Kd", "setting": "VirB (Shigella flexneri)", "result": 2.3, "unit": "µM"}]}, {"molecule": "NdeI-opened virS DNA (from 215 bp)", "values": [{"measurement": "binding signal (fraction of maximum signal on closed DNA)", "setting": "VirB (Shigella flexneri)", "result": 0.25}]}, {"molecule": "Nc1ccn([C@@H]2O[C@H](COP(=O)(O)OP(=O)(O)OP(O)(O)=S)[C@@H](O)[C@H]2O)c(=O)n1", "note": "[CTPγS]", "values": [{"measurement": "Kd", "setting": "VirB [2]", "result": "~12", "unit": "µM"}]}, {"molecule": "Nc1ccn([C@@H]2O[C@H](COP(=O)(O)OP(=O)(O)O)[C@@H](O)[C@H]2O)c(=O)n1", "note": "[CDP]", "values": [{"measurement": "Kd", "setting": "VirB [3]", "result": "~91", "unit": "µM"}]}, {"molecule": "B1", "values": [{"measurement": "binding result", "setting": "VirB [4]", "result": "binds"}]}, {"molecule": "B2", "values": [{"measurement": "stoichiometry N", "setting": "[5]", "result": 2}]}, {"molecule": "B3", "values": [{"measurement": "binding result", "setting": "[6]", "result": "binds"}]}]}
